Values quoted from earlier work, collected in paper PMC3634455.

How the values were obtained:
[1] = biological target: plasminogen (Homo sapiens) (UniProt P00747)
tPA (Homo sapiens) = tPA (Homo sapiens) (UniProt P00750)
Chain of UniProt P00750 (P00750 36-562): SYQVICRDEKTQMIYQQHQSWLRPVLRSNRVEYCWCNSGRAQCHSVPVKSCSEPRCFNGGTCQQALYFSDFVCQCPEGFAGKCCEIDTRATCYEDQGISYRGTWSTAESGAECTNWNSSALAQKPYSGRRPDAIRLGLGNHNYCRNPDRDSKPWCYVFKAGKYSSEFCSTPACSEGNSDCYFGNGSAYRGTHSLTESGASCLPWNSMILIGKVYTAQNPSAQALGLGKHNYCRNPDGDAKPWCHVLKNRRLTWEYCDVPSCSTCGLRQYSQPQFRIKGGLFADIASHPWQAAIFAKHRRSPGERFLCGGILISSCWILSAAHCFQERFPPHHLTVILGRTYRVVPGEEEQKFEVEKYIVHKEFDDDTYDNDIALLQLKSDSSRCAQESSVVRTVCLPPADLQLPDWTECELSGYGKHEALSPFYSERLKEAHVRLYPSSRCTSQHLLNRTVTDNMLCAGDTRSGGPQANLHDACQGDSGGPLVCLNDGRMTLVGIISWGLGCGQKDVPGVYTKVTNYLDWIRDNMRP

Chain of UniProt P00747 (P00747 20-810): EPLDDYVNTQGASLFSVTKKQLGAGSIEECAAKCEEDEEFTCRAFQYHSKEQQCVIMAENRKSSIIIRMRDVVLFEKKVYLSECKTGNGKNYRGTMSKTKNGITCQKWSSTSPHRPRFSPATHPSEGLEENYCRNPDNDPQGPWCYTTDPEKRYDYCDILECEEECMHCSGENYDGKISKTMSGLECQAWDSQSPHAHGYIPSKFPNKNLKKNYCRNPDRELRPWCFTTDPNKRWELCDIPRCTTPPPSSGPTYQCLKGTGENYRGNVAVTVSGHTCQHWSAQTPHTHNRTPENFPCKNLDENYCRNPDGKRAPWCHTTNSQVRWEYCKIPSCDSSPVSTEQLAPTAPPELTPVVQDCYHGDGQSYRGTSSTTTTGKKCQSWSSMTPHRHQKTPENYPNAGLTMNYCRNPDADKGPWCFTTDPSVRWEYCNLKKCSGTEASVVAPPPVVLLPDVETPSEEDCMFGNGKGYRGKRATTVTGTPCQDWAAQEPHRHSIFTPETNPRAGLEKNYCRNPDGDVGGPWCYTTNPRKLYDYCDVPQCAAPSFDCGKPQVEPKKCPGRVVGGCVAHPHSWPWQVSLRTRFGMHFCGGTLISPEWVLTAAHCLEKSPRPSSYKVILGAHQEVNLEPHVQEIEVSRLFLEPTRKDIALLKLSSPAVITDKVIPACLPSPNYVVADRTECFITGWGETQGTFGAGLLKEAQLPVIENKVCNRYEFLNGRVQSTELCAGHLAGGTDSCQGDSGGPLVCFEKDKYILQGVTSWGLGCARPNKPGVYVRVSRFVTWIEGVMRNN

Kd [1]: 110 nM | Kd (tPA (Homo sapiens)): 680 nM
Substance: S100A10 (annexin A2 heterotetramer) (from UniProt P60903)
